Primed or numbered codes have the meaning given here. The star is where a group is joined. (^19F)FBA = O=C(c1ccc([19F])cc1)*; PEG11′ = not defined here
T1: αvβ6 integrin (purified, captured on the ELISA plate), P06756
T1 chain 1: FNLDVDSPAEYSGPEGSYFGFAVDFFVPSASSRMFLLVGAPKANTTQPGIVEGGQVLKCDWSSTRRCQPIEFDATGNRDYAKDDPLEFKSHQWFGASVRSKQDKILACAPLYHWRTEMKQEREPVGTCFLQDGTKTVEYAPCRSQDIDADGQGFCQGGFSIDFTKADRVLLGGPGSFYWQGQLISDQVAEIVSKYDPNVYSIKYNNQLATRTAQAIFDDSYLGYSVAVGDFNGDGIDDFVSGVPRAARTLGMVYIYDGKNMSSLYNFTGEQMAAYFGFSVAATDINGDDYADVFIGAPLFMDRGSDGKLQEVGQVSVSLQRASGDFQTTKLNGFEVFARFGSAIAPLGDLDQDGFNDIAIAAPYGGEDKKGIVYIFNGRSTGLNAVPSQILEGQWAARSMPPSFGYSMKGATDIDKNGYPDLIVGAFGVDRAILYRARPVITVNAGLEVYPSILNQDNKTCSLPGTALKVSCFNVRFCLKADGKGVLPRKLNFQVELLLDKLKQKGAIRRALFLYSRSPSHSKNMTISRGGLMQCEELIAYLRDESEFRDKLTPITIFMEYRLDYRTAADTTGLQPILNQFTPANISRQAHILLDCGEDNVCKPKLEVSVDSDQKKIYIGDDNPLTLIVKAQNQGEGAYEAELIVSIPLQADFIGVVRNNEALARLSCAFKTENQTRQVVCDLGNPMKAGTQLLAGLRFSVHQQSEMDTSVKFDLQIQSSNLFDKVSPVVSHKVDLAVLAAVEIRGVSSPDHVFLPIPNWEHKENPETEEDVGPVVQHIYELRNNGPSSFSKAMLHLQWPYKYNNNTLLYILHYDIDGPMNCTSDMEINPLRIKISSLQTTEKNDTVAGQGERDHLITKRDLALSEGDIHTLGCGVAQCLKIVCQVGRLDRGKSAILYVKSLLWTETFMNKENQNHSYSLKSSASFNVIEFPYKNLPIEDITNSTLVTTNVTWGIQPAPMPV
T1 chain 2: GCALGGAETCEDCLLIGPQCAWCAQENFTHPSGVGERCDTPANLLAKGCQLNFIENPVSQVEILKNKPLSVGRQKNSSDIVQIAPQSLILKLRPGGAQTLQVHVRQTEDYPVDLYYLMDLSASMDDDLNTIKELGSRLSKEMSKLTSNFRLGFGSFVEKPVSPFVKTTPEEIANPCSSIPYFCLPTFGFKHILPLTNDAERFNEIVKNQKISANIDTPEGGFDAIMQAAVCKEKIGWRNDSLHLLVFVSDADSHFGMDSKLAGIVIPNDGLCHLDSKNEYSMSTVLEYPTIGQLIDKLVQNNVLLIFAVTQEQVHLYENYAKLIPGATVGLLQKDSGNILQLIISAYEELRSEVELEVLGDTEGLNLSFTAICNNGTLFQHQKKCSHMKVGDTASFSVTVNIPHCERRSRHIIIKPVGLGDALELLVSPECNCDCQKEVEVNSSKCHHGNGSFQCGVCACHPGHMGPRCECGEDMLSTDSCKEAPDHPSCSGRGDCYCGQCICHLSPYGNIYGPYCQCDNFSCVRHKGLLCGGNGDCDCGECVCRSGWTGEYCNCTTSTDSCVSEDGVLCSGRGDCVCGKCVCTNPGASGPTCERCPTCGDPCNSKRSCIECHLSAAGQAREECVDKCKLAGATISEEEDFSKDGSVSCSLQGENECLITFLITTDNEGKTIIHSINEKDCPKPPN

B1: H-…([^19F]FBA)-NH2 (peptide)
peptide: H-RSDLTPLFK((^19F)FBA)-NH2
B2: [^19F]FBA-RSDLTPLF-PEG11-NH2 (peptide)
peptide: {(^19F)FBA}-RSDLTPLF-{PEG11′-NH2}
B3: [^19F]FBA-RSDLTPLF-NH2 (peptide)
peptide: {(^19F)FBA}-RSDLTPLF-NH2
B4: [^19F]FBA-PEG11-RSDLTPLF-NH2 (peptide)
peptide: {(^19F)FBA-PEG11′}-RSDLTPLF-NH2
B5: [^19F]FBA-PEG11-RSDLTPLF-PEG11-NH2 (peptide)
peptide: {(^19F)FBA-PEG11′}-RSDLTPLF-{PEG11′-NH2}

Molecular target: T1, αvβ6 integrin (purified, captured on …)
Test: competitive ELISA; captured αvβ6; competitor biotinylated fibronectin

Binder	IC50 [nM]
B1	34
B2	40
B3	7
B4	40
B5	25
